Data taken from patent US20220298218A1 (ANTAG THERAPEUTICS, published 2022).
*1 amine or outer side, *2 acyl side, *3 side chain or, on linkers, in order; H or OH if unused. Where no end group is shown, it is not given here. [ ]: non-standard residue; d: D form. The star is where a group is joined. C16 diacid = O=C(O)CCCCCCCCCCCCCCC(=O)*; γGlu = O=C(O)[C@H](CCC(=O)[*:2])N[*:1]; Nle = CCCC[C@H](N)C(=O)O; Aib = CC(C)(N)C(=O)O

T1: human GIP receptor (human, UniProt P48546 22-466)
T1 sequence (looked up): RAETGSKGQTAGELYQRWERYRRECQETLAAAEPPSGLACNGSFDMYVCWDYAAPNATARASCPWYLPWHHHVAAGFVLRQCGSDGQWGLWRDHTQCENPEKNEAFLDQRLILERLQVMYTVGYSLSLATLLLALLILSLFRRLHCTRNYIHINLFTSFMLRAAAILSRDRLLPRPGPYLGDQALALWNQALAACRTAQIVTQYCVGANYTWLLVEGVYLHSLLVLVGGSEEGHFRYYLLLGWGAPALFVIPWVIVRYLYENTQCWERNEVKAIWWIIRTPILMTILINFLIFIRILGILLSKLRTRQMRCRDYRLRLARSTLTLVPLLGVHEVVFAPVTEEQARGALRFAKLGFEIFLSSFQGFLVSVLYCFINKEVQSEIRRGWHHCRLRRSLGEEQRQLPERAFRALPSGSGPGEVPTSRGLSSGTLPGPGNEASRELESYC

B1: AT668 (peptide)
peptide: EGTFISDYSIALDKIK(C16 diacid)QQDFVEWLLAQKPSSGAPPPS-OH
modifications: N-terminus assumed
SMILES: CC[C@H](C)[C@H](NC(=O)[C@H](CO)NC(=O)[C@H](Cc1ccc(O)cc1)NC(=O)[C@H](CC(=O)O)NC(=O)[C@H](CO)NC(=O)[C@@H](NC(=O)[C@H](Cc1ccccc1)NC(=O)[C@@H](NC(=O)CNC(=O)[C@@H](N)CCC(=O)O)[C@@H](C)O)[C@@H](C)CC)C(=O)N[C@@H](C)C(=O)N[C@@H](CC(C)C)C(=O)N[C@@H](CC(=O)O)C(=O)N[C@@H](CCCCN)C(=O)N[C@H](C(=O)N[C@@H](CCCCNC(=O)CCCCCCCCCCCCCCC(=O)O)C(=O)N[C@@H](CCC(N)=O)C(=O)N[C@@H](CCC(N)=O)C(=O)N[C@@H](CC(=O)O)C(=O)N[C@@H](Cc1ccccc1)C(=O)N[C@H](C(=O)N[C@@H](CCC(=O)O)C(=O)N[C@@H](Cc1c[nH]c2ccccc12)C(=O)N[C@@H](CC(C)C)C(=O)N[C@@H](CC(C)C)C(=O)N[C@@H](C)C(=O)N[C@@H](CCC(N)=O)C(=O)N[C@@H](CCCCN)C(=O)N1CCC[C@H]1C(=O)N[C@@H](CO)C(=O)N[C@@H](CO)C(=O)NCC(=O)N[C@@H](C)C(=O)N1CCC[C@H]1C(=O)N1CCC[C@H]1C(=O)N1CCC[C@H]1C(=O)N[C@@H](CO)C(=O)O)C(C)C)[C@@H](C)CC
B2: AT669 (peptide)
peptide: EGTFISDYSIA[Nle]DKIK(C16 diacid)QQDFVEWLLAQKPSSGAPPPS-OH
modifications: N-terminus assumed
SMILES: CCCC[C@H](NC(=O)[C@H](C)NC(=O)[C@@H](NC(=O)[C@H](CO)NC(=O)[C@H](Cc1ccc(O)cc1)NC(=O)[C@H](CC(=O)O)NC(=O)[C@H](CO)NC(=O)[C@@H](NC(=O)[C@H](Cc1ccccc1)NC(=O)[C@@H](NC(=O)CNC(=O)[C@@H](N)CCC(=O)O)[C@@H](C)O)[C@@H](C)CC)[C@@H](C)CC)C(=O)N[C@@H](CC(=O)O)C(=O)N[C@@H](CCCCN)C(=O)N[C@H](C(=O)N[C@@H](CCCCNC(=O)CCCCCCCCCCCCCCC(=O)O)C(=O)N[C@@H](CCC(N)=O)C(=O)N[C@@H](CCC(N)=O)C(=O)N[C@@H](CC(=O)O)C(=O)N[C@@H](Cc1ccccc1)C(=O)N[C@H](C(=O)N[C@@H](CCC(=O)O)C(=O)N[C@@H](Cc1c[nH]c2ccccc12)C(=O)N[C@@H](CC(C)C)C(=O)N[C@@H](CC(C)C)C(=O)N[C@@H](C)C(=O)N[C@@H](CCC(N)=O)C(=O)N[C@@H](CCCCN)C(=O)N1CCC[C@H]1C(=O)N[C@@H](CO)C(=O)N[C@@H](CO)C(=O)NCC(=O)N[C@@H](C)C(=O)N1CCC[C@H]1C(=O)N1CCC[C@H]1C(=O)N1CCC[C@H]1C(=O)N[C@@H](CO)C(=O)O)C(C)C)[C@@H](C)CC
B3: AT670 (peptide)
peptide: EGTFISDYSIAKDKIK(C16 diacid)QQDFVEWLLAQKPSSGAPPPS-OH
modifications: N-terminus assumed
SMILES: CC[C@H](C)[C@H](NC(=O)[C@H](CO)NC(=O)[C@H](Cc1ccc(O)cc1)NC(=O)[C@H](CC(=O)O)NC(=O)[C@H](CO)NC(=O)[C@@H](NC(=O)[C@H](Cc1ccccc1)NC(=O)[C@@H](NC(=O)CNC(=O)[C@@H](N)CCC(=O)O)[C@@H](C)O)[C@@H](C)CC)C(=O)N[C@@H](C)C(=O)N[C@@H](CCCCN)C(=O)N[C@@H](CC(=O)O)C(=O)N[C@@H](CCCCN)C(=O)N[C@H](C(=O)N[C@@H](CCCCNC(=O)CCCCCCCCCCCCCCC(=O)O)C(=O)N[C@@H](CCC(N)=O)C(=O)N[C@@H](CCC(N)=O)C(=O)N[C@@H](CC(=O)O)C(=O)N[C@@H](Cc1ccccc1)C(=O)N[C@H](C(=O)N[C@@H](CCC(=O)O)C(=O)N[C@@H](Cc1c[nH]c2ccccc12)C(=O)N[C@@H](CC(C)C)C(=O)N[C@@H](CC(C)C)C(=O)N[C@@H](C)C(=O)N[C@@H](CCC(N)=O)C(=O)N[C@@H](CCCCN)C(=O)N1CCC[C@H]1C(=O)N[C@@H](CO)C(=O)N[C@@H](CO)C(=O)NCC(=O)N[C@@H](C)C(=O)N1CCC[C@H]1C(=O)N1CCC[C@H]1C(=O)N1CCC[C@H]1C(=O)N[C@@H](CO)C(=O)O)C(C)C)[C@@H](C)CC
B4: AT673 (peptide)
peptide: EGTFISEYSI[Aib]LEKIK(C16 diacid)QQEFVEWLLAQKPSSGAPPPS-OH
modifications: N-terminus assumed
SMILES: CC[C@H](C)[C@H](NC(=O)[C@H](CCCCN)NC(=O)[C@H](CCC(=O)O)NC(=O)[C@H](CC(C)C)NC(=O)C(C)(C)NC(=O)[C@@H](NC(=O)[C@H](CO)NC(=O)[C@H](Cc1ccc(O)cc1)NC(=O)[C@H](CCC(=O)O)NC(=O)[C@H](CO)NC(=O)[C@@H](NC(=O)[C@H](Cc1ccccc1)NC(=O)[C@@H](NC(=O)CNC(=O)[C@@H](N)CCC(=O)O)[C@@H](C)O)[C@@H](C)CC)[C@@H](C)CC)C(=O)N[C@@H](CCCCNC(=O)CCCCCCCCCCCCCCC(=O)O)C(=O)N[C@@H](CCC(N)=O)C(=O)N[C@@H](CCC(N)=O)C(=O)N[C@@H](CCC(=O)O)C(=O)N[C@@H](Cc1ccccc1)C(=O)N[C@H](C(=O)N[C@@H](CCC(=O)O)C(=O)N[C@@H](Cc1c[nH]c2ccccc12)C(=O)N[C@@H](CC(C)C)C(=O)N[C@@H](CC(C)C)C(=O)N[C@@H](C)C(=O)N[C@@H](CCC(N)=O)C(=O)N[C@@H](CCCCN)C(=O)N1CCC[C@H]1C(=O)N[C@@H](CO)C(=O)N[C@@H](CO)C(=O)NCC(=O)N[C@@H](C)C(=O)N1CCC[C@H]1C(=O)N1CCC[C@H]1C(=O)N1CCC[C@H]1C(=O)N[C@@H](CO)C(=O)O)C(C)C
B5: AT674 (peptide)
peptide: EGTFISEYSI[Aib][Nle]EKIK(C16 diacid)QQEFVEWLLAQKPSSGAPPPS-OH
modifications: N-terminus assumed
SMILES: CCCC[C@H](NC(=O)C(C)(C)NC(=O)[C@@H](NC(=O)[C@H](CO)NC(=O)[C@H](Cc1ccc(O)cc1)NC(=O)[C@H](CCC(=O)O)NC(=O)[C@H](CO)NC(=O)[C@@H](NC(=O)[C@H](Cc1ccccc1)NC(=O)[C@@H](NC(=O)CNC(=O)[C@@H](N)CCC(=O)O)[C@@H](C)O)[C@@H](C)CC)[C@@H](C)CC)C(=O)N[C@@H](CCC(=O)O)C(=O)N[C@@H](CCCCN)C(=O)N[C@H](C(=O)N[C@@H](CCCCNC(=O)CCCCCCCCCCCCCCC(=O)O)C(=O)N[C@@H](CCC(N)=O)C(=O)N[C@@H](CCC(N)=O)C(=O)N[C@@H](CCC(=O)O)C(=O)N[C@@H](Cc1ccccc1)C(=O)N[C@H](C(=O)N[C@@H](CCC(=O)O)C(=O)N[C@@H](Cc1c[nH]c2ccccc12)C(=O)N[C@@H](CC(C)C)C(=O)N[C@@H](CC(C)C)C(=O)N[C@@H](C)C(=O)N[C@@H](CCC(N)=O)C(=O)N[C@@H](CCCCN)C(=O)N1CCC[C@H]1C(=O)N[C@@H](CO)C(=O)N[C@@H](CO)C(=O)NCC(=O)N[C@@H](C)C(=O)N1CCC[C@H]1C(=O)N1CCC[C@H]1C(=O)N1CCC[C@H]1C(=O)N[C@@H](CO)C(=O)O)C(C)C)[C@@H](C)CC
B6: AT675 (peptide)
peptide: [γGlu]GTFISDYSIAMDKIK(C16 diacid)QQDFVNWLLAQKPSSGAPPPS-OH
modifications: N-terminus assumed
SMILES: CC[C@H](C)[C@H](NC(=O)[C@H](CO)NC(=O)[C@H](Cc1ccc(O)cc1)NC(=O)[C@H](CC(=O)O)NC(=O)[C@H](CO)NC(=O)[C@@H](NC(=O)[C@H](Cc1ccccc1)NC(=O)[C@@H](NC(=O)CNC(=O)CC[C@H](N)C(=O)O)[C@@H](C)O)[C@@H](C)CC)C(=O)N[C@@H](C)C(=O)N[C@@H](CCSC)C(=O)N[C@@H](CC(=O)O)C(=O)N[C@@H](CCCCN)C(=O)N[C@H](C(=O)N[C@@H](CCCCNC(=O)CCCCCCCCCCCCCCC(=O)O)C(=O)N[C@@H](CCC(N)=O)C(=O)N[C@@H](CCC(N)=O)C(=O)N[C@@H](CC(=O)O)C(=O)N[C@@H](Cc1ccccc1)C(=O)N[C@H](C(=O)N[C@@H](CC(N)=O)C(=O)N[C@@H](Cc1c[nH]c2ccccc12)C(=O)N[C@@H](CC(C)C)C(=O)N[C@@H](CC(C)C)C(=O)N[C@@H](C)C(=O)N[C@@H](CCC(N)=O)C(=O)N[C@@H](CCCCN)C(=O)N1CCC[C@H]1C(=O)N[C@@H](CO)C(=O)N[C@@H](CO)C(=O)NCC(=O)N[C@@H](C)C(=O)N1CCC[C@H]1C(=O)N1CCC[C@H]1C(=O)N1CCC[C@H]1C(=O)N[C@@H](CO)C(=O)O)C(C)C)[C@@H](C)CC

The binders below were run against T1, human GIP receptor (assay: cell-based or functional assay).
EGTFISDYSI[Aib][Nle]DKIK(C16 diacid)QQDFVEWLLAQKPSSGAPPPS-OH [AT667] was tested, and the “cAMP agonism % Emax” value was 4%, the “cAMP antagonism” value was 0.736 nM and the “cAMP antagonism % inhib” value was 86%. The “cAMP antagonism pIC50” value was 9.1. B1 was tested, and the “cAMP agonism % Emax” value was 0%, the “cAMP antagonism” value was 0.944 nM and the “cAMP antagonism % inhib” value was 92%. For the same binder, the “cAMP antagonism pIC50” value was 9. B2 was tested, and the “cAMP agonism % Emax” value was 0%, the “cAMP antagonism” value was 3.35 nM and the “cAMP antagonism % inhib” value was 95%. The “cAMP antagonism pIC50” value was 8.5. B3 was tested, and the “cAMP agonism % Emax” value was 0%, the “cAMP antagonism” value was 10 nM and the “cAMP antagonism % inhib” value was 92%. For the same binder, the “cAMP antagonism pIC50” value was 8. With B4 the “cAMP agonism % Emax” value was 0%, the “cAMP antagonism” value was 0.136 nM and the “cAMP antagonism % inhib” value was 94%. For the same binder, the “cAMP antagonism pIC50” value was 9.9. For B5, the “cAMP agonism % Emax” value was 0%, the “cAMP antagonism” value was 0.447 nM and the “cAMP antagonism % inhib” value was 93%. For the same binder, the “cAMP antagonism pIC50” value was 9.4. For B6, the “cAMP agonism % Emax” value was 3%, the “cAMP antagonism” value was 4.3 nM and the “cAMP antagonism % inhib” value was 90%. For the same binder, the “cAMP antagonism pIC50” value was 8.4. [βGlu]GTFISDYSIAMDKIK(C16 diacid)QQDFVNWLLAQKPSSGAPPPS-OH [AT676] was tested, and the “cAMP agonism % Emax” value was 0%, the “cAMP antagonism” value was 2.33 nM and the “cAMP antagonism % inhib” value was 91%. The “cAMP antagonism pIC50” value was 8.6.
